Assay results published in patent US20100015139A1.
pIC50, pKd: −log10 of the molar value.

Columns and labels:
human factor B (human) [1] = biological target: human factor B (human) (UniProt P00751); assay: cell-based or functional assay
[2] = biological target: Ba protein (Ba fragment of factor B) (human) (UniProt P00751); assay: ELISA; antibody titrated on Ba-coated wells
human factor B (human) [3] = biological target: human factor B (human) (UniProt P00751); assay: competition ELISA; Anti-Ba varied, factor B binding to C3b-coated plates
human factor B (human) [4] = biological target: human factor B (human) (UniProt P00751); assay: competition ELISA; Anti-Ba varied, factor B binding to properdin-bound C3b on plates
human factor B (human) [5] = biological target: human factor B (human) (UniProt P00751); assay: competition ELISA; Anti-Ba varied, factor B binding to C3b or properdin-bound C3b; range told for both formats

Chain of human factor B (human) (P00751 other isoform, or with tags, fused parts or gaps limits assumed): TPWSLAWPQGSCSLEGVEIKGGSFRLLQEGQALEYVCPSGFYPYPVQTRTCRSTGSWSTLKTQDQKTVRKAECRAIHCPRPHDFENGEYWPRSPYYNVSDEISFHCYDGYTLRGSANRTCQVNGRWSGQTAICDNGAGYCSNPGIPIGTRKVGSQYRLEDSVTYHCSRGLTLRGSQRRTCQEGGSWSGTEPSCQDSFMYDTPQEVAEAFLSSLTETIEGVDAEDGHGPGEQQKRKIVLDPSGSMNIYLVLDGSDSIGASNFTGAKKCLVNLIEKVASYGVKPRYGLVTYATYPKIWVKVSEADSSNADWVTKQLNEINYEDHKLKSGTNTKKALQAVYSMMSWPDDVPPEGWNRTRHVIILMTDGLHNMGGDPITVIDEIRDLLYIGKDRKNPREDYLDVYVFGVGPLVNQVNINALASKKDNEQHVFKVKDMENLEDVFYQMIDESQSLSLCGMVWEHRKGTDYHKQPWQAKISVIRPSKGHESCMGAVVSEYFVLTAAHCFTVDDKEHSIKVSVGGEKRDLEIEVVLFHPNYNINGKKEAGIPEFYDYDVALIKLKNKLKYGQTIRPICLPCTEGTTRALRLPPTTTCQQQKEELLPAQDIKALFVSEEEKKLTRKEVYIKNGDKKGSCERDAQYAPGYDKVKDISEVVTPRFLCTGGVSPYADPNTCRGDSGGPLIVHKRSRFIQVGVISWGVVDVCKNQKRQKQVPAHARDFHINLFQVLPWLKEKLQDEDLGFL
Chain of Ba protein (Ba fragment of factor B) (human) (P00751 other isoform, or with tags, fused parts or gaps limits assumed): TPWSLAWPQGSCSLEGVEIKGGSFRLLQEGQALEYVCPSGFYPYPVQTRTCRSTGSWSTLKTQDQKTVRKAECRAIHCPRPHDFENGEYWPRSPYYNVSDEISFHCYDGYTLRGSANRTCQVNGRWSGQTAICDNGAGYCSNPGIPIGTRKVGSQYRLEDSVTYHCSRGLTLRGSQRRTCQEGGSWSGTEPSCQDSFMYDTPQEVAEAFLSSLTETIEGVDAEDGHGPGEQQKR

Inhibition of C5b-9 formation in normal human serum on LPS coated plates (AP dependent C3-convertase formation) (human factor B (human) [1]): 527 nM | pKd [2]: 8.02 | pIC50 (human factor B (human) [3]): 6.25 | pIC50 (human factor B (human) [4]): 6.63 | pIC50 (human factor B (human) [5]): 6.30 to 6.70
Substance: anti-factor Ba monoclonal antibody (Quidel A225, murine)
Inhibition of alternative pathway-dependent hemolysis of rabbit erythrocytes in 10% normal human serum (human factor B (human) [1]): 125 µg/mL
